Measured values as given in publication PMC3214066.

Biological target: Collagen S (soluble, type I, from calf skin) (calf) (UniProt P02453)
Assay: radioligand binding; collagen I monomers (5 µg/mL in 1% acetic acid + 1% NaCl) coated on 96-well plates, blocked with 1% BSA; 125I-labelled A1M (50×10^3 cpm) with increasing unlabelled A1M in PBS + 0.05% Tween, overnight at 4°C; Scatchard analysis

UniProt P02453, sequence (P02453 162-1217, chain 1 of 2): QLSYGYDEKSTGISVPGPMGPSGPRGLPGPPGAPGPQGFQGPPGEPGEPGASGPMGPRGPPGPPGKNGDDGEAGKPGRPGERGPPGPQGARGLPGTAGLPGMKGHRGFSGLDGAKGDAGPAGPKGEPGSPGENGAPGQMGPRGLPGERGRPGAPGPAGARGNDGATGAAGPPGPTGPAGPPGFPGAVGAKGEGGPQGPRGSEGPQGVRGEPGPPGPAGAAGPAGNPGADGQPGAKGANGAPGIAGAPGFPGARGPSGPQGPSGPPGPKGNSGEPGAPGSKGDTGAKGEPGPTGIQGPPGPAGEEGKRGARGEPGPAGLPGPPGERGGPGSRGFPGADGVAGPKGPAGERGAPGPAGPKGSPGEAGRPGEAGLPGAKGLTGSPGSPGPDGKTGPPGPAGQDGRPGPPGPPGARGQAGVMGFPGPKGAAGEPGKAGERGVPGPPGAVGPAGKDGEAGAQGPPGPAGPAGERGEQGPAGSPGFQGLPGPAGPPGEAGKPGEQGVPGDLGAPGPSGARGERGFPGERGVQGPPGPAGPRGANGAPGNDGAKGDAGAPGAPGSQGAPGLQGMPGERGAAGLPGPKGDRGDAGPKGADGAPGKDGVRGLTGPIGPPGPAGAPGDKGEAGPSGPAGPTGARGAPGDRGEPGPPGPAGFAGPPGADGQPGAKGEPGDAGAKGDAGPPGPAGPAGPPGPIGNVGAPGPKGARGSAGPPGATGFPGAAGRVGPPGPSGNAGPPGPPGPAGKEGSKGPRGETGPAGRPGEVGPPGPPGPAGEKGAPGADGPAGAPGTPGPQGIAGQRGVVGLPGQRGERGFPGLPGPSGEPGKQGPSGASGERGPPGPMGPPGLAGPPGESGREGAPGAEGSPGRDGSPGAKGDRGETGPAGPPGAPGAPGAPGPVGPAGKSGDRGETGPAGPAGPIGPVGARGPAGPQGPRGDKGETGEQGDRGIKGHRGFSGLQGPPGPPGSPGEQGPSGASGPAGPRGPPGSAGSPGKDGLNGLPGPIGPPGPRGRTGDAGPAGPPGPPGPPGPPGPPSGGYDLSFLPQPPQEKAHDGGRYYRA
UniProt P02453, sequence (P02465 80-1117, chain 2 of 2, further chain): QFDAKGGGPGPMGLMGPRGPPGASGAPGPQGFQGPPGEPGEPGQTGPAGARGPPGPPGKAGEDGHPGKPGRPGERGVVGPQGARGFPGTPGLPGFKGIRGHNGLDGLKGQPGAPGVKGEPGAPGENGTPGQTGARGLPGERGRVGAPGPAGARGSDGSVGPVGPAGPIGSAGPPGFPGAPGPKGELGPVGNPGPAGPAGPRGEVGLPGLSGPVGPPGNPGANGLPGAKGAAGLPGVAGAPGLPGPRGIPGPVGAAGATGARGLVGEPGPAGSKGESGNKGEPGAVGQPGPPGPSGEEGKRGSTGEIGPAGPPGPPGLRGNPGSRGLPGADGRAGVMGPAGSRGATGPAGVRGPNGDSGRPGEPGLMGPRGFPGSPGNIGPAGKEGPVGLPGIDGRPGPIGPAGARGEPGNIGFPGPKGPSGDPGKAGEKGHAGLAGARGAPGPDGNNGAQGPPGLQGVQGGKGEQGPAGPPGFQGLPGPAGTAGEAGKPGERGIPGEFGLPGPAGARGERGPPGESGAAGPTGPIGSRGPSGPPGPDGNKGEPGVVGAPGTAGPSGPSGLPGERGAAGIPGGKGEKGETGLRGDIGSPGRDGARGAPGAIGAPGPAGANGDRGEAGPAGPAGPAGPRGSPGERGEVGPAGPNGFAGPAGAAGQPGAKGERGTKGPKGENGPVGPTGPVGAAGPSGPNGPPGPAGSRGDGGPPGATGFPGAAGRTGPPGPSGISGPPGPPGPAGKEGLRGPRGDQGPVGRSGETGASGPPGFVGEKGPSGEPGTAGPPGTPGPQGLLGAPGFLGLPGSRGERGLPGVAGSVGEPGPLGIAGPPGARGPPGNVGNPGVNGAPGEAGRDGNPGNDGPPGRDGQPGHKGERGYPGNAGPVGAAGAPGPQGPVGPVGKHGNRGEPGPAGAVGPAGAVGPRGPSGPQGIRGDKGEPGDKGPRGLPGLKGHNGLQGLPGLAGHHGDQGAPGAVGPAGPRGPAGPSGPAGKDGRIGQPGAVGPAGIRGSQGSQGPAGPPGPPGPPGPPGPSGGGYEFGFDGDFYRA

- Kd: 0.96 µM
B1: Recombinant human α1-microglobulin (A1M) (natural protein)
chain: GPVPTPPDNIQVQENFNISRIYGKWYNLAIGSTCPWLKKIMDRMTVSTLVLGEGATEAEISMTSTRWRKGVCEETSGAYEKTDTDGKFLYHKSKWNITMESYVVHTNYDEYAIFLTKKFSRHHGPTITAKLYGRAPQLRETLLQDFRVVAQGVGIPEDSIFTMADRGECVPGEQEPEPILIPRV
modifications: 125I label (chloramine T method) on the tracer in the solid phase binding assay; colloidal gold label (4-5 nm) in the electron microscopy binding experiment
